Assay results reported in publication PMC3689661, “Plant Kinesin-Like Calmodulin Binding Protein Employs Its Regulatory Domain for Dimerization” (PLoS ONE, 2013).

B1: Arabidopsis KCBP (820–1225) (domain or fragment, UniProt Q9FHN8 820-1225, looked up)
chain: NSDMLLLQNNLKELEELREMKEDIDRKNEQTAAILKMQGAQLAELEILYKEEQVLRKRYYNTIEDMKGKIRVYCRIRPLNEKESSEREKQMLTTVDEFTVEHPWKDDKRKQHIYDRVFDMRASQDDIFEDTKYLVQSAVDGYNVCIFAYGQTGSGKTFTIYGHESNPGLTPRATKELFNILKRDSKRFSFSLKAYMVELYQDTLVDLLLPKSARRLKLEIKKDSKGMVFVENVTTIPISTLEELRMILERGSERRHVSGTNMNEESSRSHLILSVVIESIDLQTQSAARGKLSFVDLAGSERVKKSGSAGCQLKEAQSINKSLSALGDVIGALSSGNQHIPYRNHKLTMLMSDSLGGNAKTLMFVNVSPAESNLDETYNSLLYASRVRTIVNDPSKHISSKEMVRL
notes: with the predicted N-terminal dimerization motif, without the regulatory helix; pET32 Xa/Lic; the tag's removal is told only in the general purification methods; the motility assay held motors by an anti-His antibody; also called N-terminal dimer of KCBP without the regulatory helix; source: E. coli BL21(DE3), purified (Ni-NTA, TEV-protease); not shown: His6-Trx, N-terminal, cleaved
B2: Arabidopsis KCBP (884–1253) (domain or fragment, UniProt Q9FHN8 884-1253, looked up)
chain: DMKGKIRVYCRIRPLNEKESSEREKQMLTTVDEFTVEHPWKDDKRKQHIYDRVFDMRASQDDIFEDTKYLVQSAVDGYNVCIFAYGQTGSGKTFTIYGHESNPGLTPRATKELFNILKRDSKRFSFSLKAYMVELYQDTLVDLLLPKSARRLKLEIKKDSKGMVFVENVTTIPISTLEELRMILERGSERRHVSGTNMNEESSRSHLILSVVIESIDLQTQSAARGKLSFVDLAGSERVKKSGSAGCQLKEAQSINKSLSALGDVIGALSSGNQHIPYRNHKLTMLMSDSLGGNAKTLMFVNVSPAESNLDETYNSLLYASRVRTIVNDPSKHISSKEMVRLKKLVAYWKEQAGKKGEEEDLVDIEEDRT
notes: motor domain with intact regulatory helix and negative coil; pET28b construct encoding a tag-free protein; source: E. coli BL21(DE3), purified (Calmodulin-Sepharose 4B)
B3: full length Arabidopsis KIC (1–135) (natural protein, UniProt Q9ZPX9 1-135, looked up)
chain: MEPTEKSMLLETTSTTKMETKYEDMLPVMAEKMDVEEFVSELCKGFSLLADPERHLITAESLRRNSGILGIEGMSKEDAQGMVREGDLDGDGALNQTEFCVLMVRLSPEMMEDAETWLEKALTQELCNHNLSSMP
notes: KIC, Ca2+ ion sensor and regulator of KCBP, Arabidopsis, residues 1-135; The tag's removal is told only in the general purification methods; source: E. coli BL21(DE3), purified (Ni-NTA, TEV-protease); not shown: His6, N-terminal, cleaved
B4: Arabidopsis KIC (29–135) (domain or fragment, UniProt Q9ZPX9 29-135, looked up)
chain: MAEKMDVEEFVSELCKGFSLLADPERHLITAESLRRNSGILGIEGMSKEDAQGMVREGDLDGDGALNQTEFCVLMVRLSPEMMEDAETWLEKALTQELCNHNLSSMP
notes: KIC, Ca2+ ion sensor and regulator of KCBP, Arabidopsis, residues 29-135; The results speak of a deletion of the first 35 N-terminal residues; The tag's removal is told only in the general purification methods; source: E. coli BL21(DE3), purified (Ni-NTA, TEV-protease); not shown: His6-TRX, N-terminal, cleaved

How the values were obtained:
[1] = target: His-tagged KIC (Arabidopsis) (UniProt Q9ZPX9); test: SEC; Superdex-200 run of the KCBP-KIC complex that had been isolated on Ni-NTA agarose; in the presence of Ca2+
[2] = target: KCBP (construct not stated, in the KCBP-KIC complex) (Arabidopsis); test: as above
[3] = target: the molecule itself; test: SEC; Superdex 200 16/60; 50 mM Tris pH 7.5, 150 mM NaCl, 2 mM MgCl2, 0.1 mM ATP, 1 mM TCEP, and either 1 mM EGTA or 2 mM CaCl2; isolated proteins

| Molecule | stoichiometry N [3] | further results |
| --- | --- | --- |
| His-tagged KIC (from UniProt Q9ZPX9 1-135) (natural protein) | – | stoichiometry N [1]: 2 |
| KCBP (construct not stated, in the KCBP-KIC complex) (domain or fragment) | – | stoichiometry N [2]: 2 |
| B1 | 2 | – |
| B2 | 2 | – |
| B3 | 2 | – |
| B4 | 2 | – |
